Reference: patent US11905559B2, “Materials and methods for controlling gene expression” (priority 2016, dated 2024)
Where “and” joins values, the source holds several entries; their conditions need not be identical. Equal entries are not always repeated.

Tests used:
[1] = Force-ramp mechanical unfolding-refolding of the guanine-aptamer (optical tweezers); type: physicochemical; conditions: for Unfolding force of the aptamer / Observed nucleotides / Observed ΔXobs: +1 μM guanine, force-ramp; for Observed nucleotides / Observed ΔXobs: complete aptamer (69 nt), 18 pN
Method: A 69 nucleotide (nt) guanine-sensing aptamer (FIGS. 3 and 4A-B) from xpt-pbuX operon in B. subtilis was used for mechanical unfolding-refolding studies. In the experimental set up shown in FIGS. 2A-E, a single molecule of the guanine-aptamer RNA was clamped between two polystyrene beads through RNA-DNA handles. […] Considering the inter-nucleotide distance as 0.448 nm at 18 pN, then using a serial worm-like chain equation
The forces on the bead were recorded at an acquisition rate of 44 kHz. Data was collected from the stereo phone jacks on the ADC boards of the Tweezers instrument and sent to the host computer audio input for analysis by SignalScope program (Faber Acoustical, LLC). As shown in the plot, power spectral density is fitted with the Lorentzian fit to yield the corner frequency (fc) that was used to calculate the trap stiffness. This setup was used to perform three different mechanical reactions: force-ramp (FR), constant-force (CF) and force-jump (FJ) under a controlled force. In the force-ramp (FR) experiment, the trap was moved at 200 nm/s, which corresponded to a loading rate 7-8 pN/s. […] The force-ramp data is plotted as force vs. extension curves (FEC).
(§1) In the force-ramp experiment, the trap was moved away (pull cycle) from the micropipette at 200 nm/sec, which corresponded to a loading rate of 7-8 pN/sec. This movement of the trap exerted a tension at the ends of the tethered RNA aptamer. […] In the constant-force (CF) experiment, the RNA was held at a preset force (FIG. 6A). The loading rate in CF experiments was zero. The preset force typically fluctuated around the mean with standard deviation ±0.15 pN. The force-ramp and the CF experiments were carried out at an ambient temperature 25±0.5° C. in buffer containing 10 mM Tris-HCl, pH 7.5 at 250 mM NaCl, 3 mM MgCl2 unless mentioned otherwise.

[2] = in-line probing assay; read-out: KD for guanine; cited from earlier work
[3] = Constant-force (CF) single-molecule optical tweezers folding assay of guanine-aptamer RNAs in guanine buffer; type: physicochemical; conditions: for F^eq / k^eq: [G] = 200 nM; for Observed nucleotides / Observed ΔXobs: CF; for k^eq: at F^eq; for Equilibrium force F^eq / Folding rate kf / Unfolding rate ku / Transition distance ΔX / ΔG (0): 3 mM Mg^2+; for Folding rate kf / Unfolding rate ku / Transition distance ΔX / ΔG (0): 200 nM G
Excerpt: The aptamer folding was monitored in real time using a constant-force (CF) assay. Equilibrium sampling techniques provide unprecedented insights into the rare events in the course of folding that are otherwise difficult to identify. The technique also allows for determination of the kinetic rates that has not been fully investigated in the guanine riboswitch. The relative dynamics of the helices have been investigated in ensemble and smFRET experiments, which indicated a non-dynamic P1-P3, upon which the P2 helix switches conformations. As shown in FIG. 6A (left panel), the RNA oscillated between the linear and the hairpin conformations (E↔D↔C) at 13 pN. The distances ΔXED=7.1±0.4 nm and ΔXDC=7.9±0.4 nm correspond to the folding of a 17±1 nt (P2) and 19±1 nt (P3) respectively (FIGS. 7A-B). The conversion of distances to nucleotides in CF assay are described in Table 2.
A miniaturized dual beam optical tweezers instrument was constructed with a sampling rate of 0.4, 4 and 40 kHz. Typically, in the tweezers set up (FIGS. 2A-E), a single-molecule of RNA is held between two beads via ˜550 nucleotide (nt) long Handles A and B. Preparation of Handles and the RNA is described in the section above. The streptavidin coated polystyrene bead (diameter 1.5-1.9 μm, Spherotech Inc.) is fixed on a micropipette via suction, and the anti-digoxigenin coated bead (diameter 4.0-4.9 μm, Spherotech Inc.) is held in the dual counter-propagating laser beam. The trap stiffness, K is measured at 0.04-0.06 pN/nm from the power spectrum analysis of the Brownian motion of the trapped bead. For power spectrum analysis, a polystyrene bead with diameter ˜4.6 μm is trapped in the counter-propagating laser beam in aqueous buffer with a fixed trap position. […] The average from 10 beads yielded K˜0.049±0.0008 pN/nm, and the stoke's drag coefficient, y=0.0364±0.0002 pN. s/μm. […] However, the autocorrelation time (τ0) defined as the τ1=1/2πfc as described by Zoldak et al., “Ultrafast folding kinetics and cooperativity of villin headpiece in single-molecule force spectroscopy”. Proc. Natl. Acad. Sci. U.S.A 110, 18156 (2013) sets the detection limit for the observable kinetics, which is different from the sampling frequencies. […] The ACF for the time series of force signal, Fi, with sampling rate δ and N data points, is calculated as,
In a constant-force (CF) experiment, the RNA is held at a preset force through feedback control. The preset force typically fluctuated around the mean with a standard deviation ±0.15 pN. In this mode, data is recorded from 4-40 kHz to capture the fast intermediates. The plots are shown as extension vs. time (as in FIG. 6A). In force-jump (FJ) assay, the force is suddenly jumped from one force to another, and then held constant thereafter, as shown in FIGS. 23A-B.
All FR, CF and FJ experiments were carried out at an ambient temperature, 25±0.5° C. The buffer in the microfluidics contained 10 mM Tris-HCl, pH 7.5 at 25° C., 250 mM NaCl, 3 mM MgCl2, and purine concentrations as indicated in wild-type aptamer. Unless stated otherwise, Mg^2+ concentration in the buffer was maintained at 3 mM in all experiments. The buffer in mutant m1 contained 5 mm Mg^2+ and 1 μM G, and in m3 contained 5 mM Mg^2+ and 200 nM Guanine. For the remaining m2, m4, m5 and m6 mutants, the buffer in single-molecule experiments was supplemented only with 3 mM Mg^2+ and 200 nM Guanine.
as §1, with “The force-ramp and the CF experiments were carried out at an ambient temperature 25±0.5° C. in buffer containing 10 mM Tris-HCl, pH 7.5 at 250 mM NaCl, 3 mM MgCl2 unless mentioned otherwise.” left out

[4] = 200 nM guanine, sequential unfolding
[5] = transition BA (P1 folding), F 8.5 pN
[6] = transition CB (J2/3 folding), F 13 pN
[7] = transition C′B (L2-L3 folding), F 8.5 pN
[8] = transition DC (P3 folding), F 13 pN
[9] = transition ED (P2 folding), F 13 pN

B1: wt: 69-nucleotide full-length wild-type guanine sensing aptamer RNA sequence from xpt-pbuX operon in B. subtilis (SEQ ID NO: 1) (nucleic acid)
chain: CACUCAUAUAAUCGCGUGGAUAUGGCACGCAAGUUUCUACCGGGCACCGUAAAUGUCCGACUAUGGGUG
modifications: RNA, backbone and methylation of C not given here
Force at which P1 melted [1, 4]: 5-10 pN
Force at which P2, P3 unfolded [1, 4]: 12-15 pN
Unfolding force of the aptamer ([1]; listed as guanine-aptamer): 18.6±1.1 pN
Unfolding force of the aptamer ([1]; listed as isolated aptamer): ~18.0 pN
Observed nucleotides [1]: 67.1 ± 2
Observed ΔXobs [1]: 30.2 ± 1.0 nm
Observed nucleotides ([1]; listed as 69 nt-aptamer): 67±2
Observed ΔXobs ([1]; listed as guanine-aptamer): 30.2±1 nm
Observed ΔXobs ([1]; listed as isolated aptamer): ~30 nm
Kd [2]: ~5 nM
F^eq ([3]; Closed J2/3 (CB)): ~13 pN
Time to form the native receptor structure after guanine binding ([3]; FIG. 22): ~8 μsec
Observed nucleotides ([3]; J2/3 (CB), 13 pN): 8.4 ± 0.2
Observed ΔXobs ([3]; J2/3 (CB), 13 pN): 3.5 ± 0.1 (CF) nm
Observed ΔXobs ([3]; L2-L3 (C′B), 8.5 pN): 3.4 ± 0.1 (CF) nm
F^eq ([3]; L2-L3 (C′B)): 8.72 ± 0.11 pN
k^eq ([3]; L2-L3 (C′B)): 0.82 ± 0.06 s⁻¹
F^eq ([3]; P1 (BA)): 8.21 ± 0.11 pN
k^eq ([3]; P1 (BA)): 0.55 ± 0.09 s⁻¹
Observed nucleotides ([3]; P1+ junctions (BA), 8.5 pN): 21.7 ± 0.5
Observed ΔXobs ([3]; P1+ junctions (BA), 8.5 pN, 2 nm helix width subtracted): 8.0 ± 0.2 (CF) nm
F^eq ([3]; P2 (ED)): 13.49 ± 0.03 pN
k^eq ([3]; P2 (ED)): 13.20 ± 0.20 s⁻¹
Observed nucleotides ([3]; P2 hairpin (ED), 13 pN): 17±1
Observed ΔXobs ([3]; P2 hairpin (ED), 13 pN): 7.1 ± 0.4 (CF) nm
F^eq ([3]; P3 (DC)): 12.19 ± 0.02 pN
k^eq ([3]; P3 (DC)): 16.80 ± 0.30 s⁻¹
Observed nucleotides ([3]; P3 hairpin (DC), 13 pN): 19±1 and 18.9 ± 1
Observed ΔXobs ([3]; P3 hairpin (DC), 13 pN): 7.9 ± 0.4 (CF) nm
Barrier ΔGP1^‡ before folding of the P1-stem ([3]; free energy landscape transformed to zero force): ~6 kBT
F^eq for P2-P3 ([3]; guanine-aptamer): ~13 pN
Rates for the two hairpins P2 and P3 ([3]; range over Table 1): 8.5 to 32.3 s⁻¹
Equilibrium force F^eq ([3]; transition BA (P1 folding), 200 nM G (rates at 8.5 pN)): 8.2 ± 0.1 pN
Folding rate kf [3, 5]: 0.4 ± 0.03 s⁻¹
Unfolding rate ku [3, 5]: 0.7 ± 0.09 s⁻¹
Transition distance ΔX ([3]; transition BA (P1 folding), F 8.5 pN, no helix width adjustment): 9.9 ± 0.2 nm
ΔG (0) ([3]; transition BA (P1 folding), zero force, from data at 8.5 pN): −13.9 ± 0.4 kBT
ΔG (0) ([3]; transition BA (P1 folding), zero force, from data at 8.5 pN, listed as wild-type): −13.9 kBT
Transition distance ΔX [3, 6]: 3.5 ± 0.1 nm
Unfolding rate ku [3, 6]: 2.6 ± 0.5 s⁻¹
ΔG (0) ([3]; transition CB (J2/3 folding), zero force, ΔG(0) = −F·ΔX + ΔGstretch): −7.2 ± 0.3 kBT
Equilibrium force F^eq ([3]; transition C′B (L2-L3 folding), 200 nM G (rates at 8.5 pN)): 8.7 ± 0.1 pN
Folding rate kf [3, 7]: 0.9 ± 0.06 s⁻¹
Transition distance ΔX [3, 7]: 3.4 ± 0.1 nm
Unfolding rate ku [3, 7]: 0.8 ± 0.05 s⁻¹
ΔG (0) ([3]; transition C′B (L2-L3 folding), zero force, from data at 8.5 pN): −7.1 ± 0.2 kBT
Equilibrium force F^eq ([3]; transition DC (P3 folding), 200 nM G (rates at 13 pN)): 12.2 ± 0.02 pN
Equilibrium force F^eq ([3]; transition DC (P3 folding), 200 nM G (rates at 13 pN), listed as wild-type): 12.2±0.02 pN
Folding rate kf [3, 8]: 8.5 ± 0.1 s⁻¹
Transition distance ΔX [3, 8]: 7.9±0.4 nm
Unfolding rate ku [3, 8]: 32.3 ± 0.5 s⁻¹
ΔG (0) ([3]; transition DC (P3 folding), zero force, from data at 13 pN): −16.3 ± 0.3 kBT
ΔG (0) ([3]; transition DC (P3 folding), zero force, from data at 13 pN, listed as wild-type): −16.3 kBT
Equilibrium force F^eq ([3]; transition ED (P2 folding), 200 nM G (rates at 13 pN)): 13.5 ± 0.03 pN
Equilibrium force F^eq ([3]; transition ED (P2 folding), 200 nM G (rates at 13 pN), listed as wild-type): 13.5±0.03 pN
Folding rate kf [3, 9]: 20.0 ± 0.4 s⁻¹
Transition distance ΔX [3, 9]: 7.1±0.4 nm
Unfolding rate ku [3, 9]: 8.9 ± 0.1 s⁻¹
ΔG (0) ([3]; transition ED (P2 folding), zero force, from data at 13 pN): −16.7 ± 0.3 kBT
Net free energy change ΔΔGaptamer ([3]; zero force, guanine-bound receptor structure): −81 kT
